The source of these data is patent publication US20130129763A1 (ARNE FORSGREN, published 2013).

Like-named read-outs stand apart in the source and are kept apart here.

Assay [1] has as its target UspA2 on the surface of M. catarrhalis (clinical isolates BBH18 and RH4) (Moraxella catarrhalis). Put plainly: flow cytometry on M. catarrhalis RH4 ΔuspA1 (UspA2 left on the surface) incubated with C3met: rabbit anti-C3d pAb + FITC anti-rabbit pAb; same column: wild type mfi 22.1, Δmid mfi 23.4 (both carry UspA1 and UspA2), ΔuspA1/A2 mfi 0.3. A general note: A flow cytometer gives signals particle by particle.

Assay [2] concerns the target UspA1 on the surface of M. catarrhalis (clinical isolates BBH18 and RH4) (Moraxella catarrhalis). As to the kind of experiment: flow cytometry on M. catarrhalis RH4 ΔuspA2 (UspA1 left on the surface) incubated with C3met: rabbit anti-C3d pAb + FITC anti-rabbit pAb; same column: wild type mfi 22.1, Δmid mfi 23.4 (both carry UspA1 and UspA2), ΔuspA1/A2 mfi 0.3.
The target in assay [3] is UspA2 on the surface of M. catarrhalis (clinical isolates BBH18 and RH4) (Moraxella catarrhalis). As to the kind of experiment: flow cytometry on M. catarrhalis RH4 ΔuspA1 (UspA2 left on the surface) incubated with EDTA-treated normal human serum: rabbit anti-C3d pAb + FITC anti-rabbit pAb; same column: wild type mfi 5.4, Δmid mfi 5.7 (both carry UspA1 and UspA2), ΔuspA1/A2 mfi 0.8.

The target in assay [4] is UspA1 on the surface of M. catarrhalis (clinical isolates BBH18 and RH4) (Moraxella catarrhalis). As to the kind of experiment: flow cytometry on M. catarrhalis RH4 ΔuspA2 (UspA1 left on the surface) incubated with EDTA-treated normal human serum: rabbit anti-C3d pAb + FITC anti-rabbit pAb; same column: wild type mfi 5.4, Δmid mfi 5.7 (both carry UspA1 and UspA2), ΔuspA1/A2 mfi 0.8.

In assay [5] the target is T1, Engelbreth-Holm-Swarm mouse sarcoma laminin (Sigma) (mouse, UniProt P19137 25-3083; P02469 22-1786; P02468 34-1607).
T1 construct: also called soluble laminin
Put plainly: ELISA: 40 nM protein coated, laminin 20 µg/ml, rabbit anti-laminin pAb + HRP anti-rabbit pAb.

Assay [6] has as its target T2, fibronectin (Sigma), soluble (UniProt P02751 32-2296).
T2 construct: also called soluble fibronectin; 125I-labeled fibronectin
As to the kind of experiment: ELISA: 40 nM fragment coated, fibronectin 120 µg/ml, rabbit anti-fibronectin pAb + HRP anti-rabbit pAb. A general note: In an ELISA, binding on a coated surface is turned into a signal by an enzyme label.

Assay [7] addresses T1, Engelbreth-Holm-Swarm mouse sarcoma …. As to the kind of experiment: ELISA: 40 nM protein coated, laminin 20 µg/ml, rabbit anti-laminin pAb + HRP anti-rabbit pAb. The source holds these as a separate data set.
Assay [8] shares this target. The assay is described as above. This is another data set of the same source.
Assay [9] concerns the target T2, fibronectin (Sigma), soluble. As to the kind of experiment: competition, flow cytometry: fibronectin pre-incubated with the UspA1 fragment, then M. catarrhalis added; fibronectin left bound to the bacteria detected with anti-fibronectin pAb.
Assay [10] shares this target. As to the kind of experiment: ELISA: 40 nM fragment coated, fibronectin 80 µg/ml, rabbit anti-fibronectin pAb + HRP anti-rabbit pAb.
Assay [11] concerns the target T1, Engelbreth-Holm-Swarm mouse sarcoma …. As to the kind of experiment: ELISA: 40 nM protein coated, laminin 20 µg/ml, rabbit anti-laminin pAb + HRP anti-rabbit pAb. This is another data set of the same source.
Assay [12] has as its target T3, methylamine-treated C3 (C3met) (human, UniProt P01024 23-667; P01024 672-1663).
T3 construct: mature; also called C3b-like molecule; [125I]-C3met
Put plainly: SPR (Biacore 2000), UspA protein amine-coupled on CM5 chip, C3met injected, steady state affinity model; UspA2^30-539 on the chip. A general note: Surface plasmon resonance follows binding to a sensor surface in real time, without labels.

Assay [13] has as its target T1, Engelbreth-Holm-Swarm mouse sarcoma …. As to the kind of experiment: ELISA: 40 nM UspA2 30-539 coated, soluble laminin titrated in three-fold steps 0.03-60 µg/ml, rabbit anti-laminin pAb + HRP anti-rabbit pAb.
The target in assay [14] is T3, methylamine-treated C3 (C3met). Put plainly: ELISA: 40 nM protein coated, C3met in solution, goat anti-human C3 pAb + HRP anti-goat pAb, background subtracted.

T2 sequence (P02751 other isoform, or with tags, fused parts or gaps limits assumed): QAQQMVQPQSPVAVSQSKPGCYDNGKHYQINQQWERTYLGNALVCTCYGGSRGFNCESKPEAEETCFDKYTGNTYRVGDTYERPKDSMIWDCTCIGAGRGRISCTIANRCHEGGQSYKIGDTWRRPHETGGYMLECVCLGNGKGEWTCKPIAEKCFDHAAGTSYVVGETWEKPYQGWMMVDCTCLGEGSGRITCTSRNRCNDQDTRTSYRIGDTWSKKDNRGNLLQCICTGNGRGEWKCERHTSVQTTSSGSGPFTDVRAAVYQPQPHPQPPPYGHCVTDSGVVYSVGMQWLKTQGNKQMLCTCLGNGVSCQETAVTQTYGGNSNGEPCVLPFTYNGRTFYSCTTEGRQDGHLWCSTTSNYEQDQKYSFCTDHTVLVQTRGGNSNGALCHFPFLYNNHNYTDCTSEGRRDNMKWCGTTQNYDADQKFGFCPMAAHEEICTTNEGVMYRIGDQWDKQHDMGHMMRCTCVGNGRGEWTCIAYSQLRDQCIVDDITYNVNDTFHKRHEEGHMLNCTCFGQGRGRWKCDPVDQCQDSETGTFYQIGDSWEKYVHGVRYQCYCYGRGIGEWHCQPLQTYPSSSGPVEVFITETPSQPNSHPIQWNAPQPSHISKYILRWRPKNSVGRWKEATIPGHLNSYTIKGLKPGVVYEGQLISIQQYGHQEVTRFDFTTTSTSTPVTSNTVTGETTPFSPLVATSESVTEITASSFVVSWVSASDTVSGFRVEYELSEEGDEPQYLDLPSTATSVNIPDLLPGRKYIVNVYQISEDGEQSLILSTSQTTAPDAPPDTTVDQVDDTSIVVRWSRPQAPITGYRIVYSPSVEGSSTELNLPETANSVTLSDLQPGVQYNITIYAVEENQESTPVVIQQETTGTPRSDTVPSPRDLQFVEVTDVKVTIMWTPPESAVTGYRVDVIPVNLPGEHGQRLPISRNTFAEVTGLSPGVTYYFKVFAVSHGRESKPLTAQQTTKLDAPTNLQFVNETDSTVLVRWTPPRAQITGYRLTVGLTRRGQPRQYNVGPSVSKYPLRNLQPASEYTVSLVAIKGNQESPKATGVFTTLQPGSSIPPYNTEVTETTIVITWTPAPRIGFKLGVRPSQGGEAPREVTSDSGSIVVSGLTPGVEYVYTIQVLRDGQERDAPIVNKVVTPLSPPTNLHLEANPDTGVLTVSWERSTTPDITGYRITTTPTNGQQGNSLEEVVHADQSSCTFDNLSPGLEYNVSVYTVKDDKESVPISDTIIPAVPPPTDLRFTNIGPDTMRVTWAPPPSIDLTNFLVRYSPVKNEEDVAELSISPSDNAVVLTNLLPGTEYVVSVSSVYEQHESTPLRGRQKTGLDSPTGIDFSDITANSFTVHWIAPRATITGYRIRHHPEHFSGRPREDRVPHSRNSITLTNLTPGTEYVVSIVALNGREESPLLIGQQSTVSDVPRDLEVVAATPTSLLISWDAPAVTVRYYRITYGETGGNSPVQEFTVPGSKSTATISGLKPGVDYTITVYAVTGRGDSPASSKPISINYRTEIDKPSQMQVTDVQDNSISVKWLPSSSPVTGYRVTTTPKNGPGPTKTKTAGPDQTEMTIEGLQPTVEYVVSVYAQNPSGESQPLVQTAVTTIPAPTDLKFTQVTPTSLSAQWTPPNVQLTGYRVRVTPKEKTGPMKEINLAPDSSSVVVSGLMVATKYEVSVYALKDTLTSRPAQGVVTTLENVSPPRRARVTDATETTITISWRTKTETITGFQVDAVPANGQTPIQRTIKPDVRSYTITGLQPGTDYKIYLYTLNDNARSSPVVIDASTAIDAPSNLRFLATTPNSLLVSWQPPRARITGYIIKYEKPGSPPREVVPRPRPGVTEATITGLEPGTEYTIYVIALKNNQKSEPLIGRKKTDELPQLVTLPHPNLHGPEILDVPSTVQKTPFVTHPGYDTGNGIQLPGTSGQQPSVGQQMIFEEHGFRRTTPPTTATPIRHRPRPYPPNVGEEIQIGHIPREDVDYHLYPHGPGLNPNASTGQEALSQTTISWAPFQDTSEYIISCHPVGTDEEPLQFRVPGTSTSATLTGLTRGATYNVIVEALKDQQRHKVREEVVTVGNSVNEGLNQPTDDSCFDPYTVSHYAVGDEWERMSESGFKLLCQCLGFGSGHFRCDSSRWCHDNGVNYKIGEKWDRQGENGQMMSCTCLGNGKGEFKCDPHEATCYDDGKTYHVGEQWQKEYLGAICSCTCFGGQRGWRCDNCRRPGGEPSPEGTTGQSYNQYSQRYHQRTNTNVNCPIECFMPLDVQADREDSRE
T3 sequence (P01024 23-667 limits assumed, chain 1 of 2): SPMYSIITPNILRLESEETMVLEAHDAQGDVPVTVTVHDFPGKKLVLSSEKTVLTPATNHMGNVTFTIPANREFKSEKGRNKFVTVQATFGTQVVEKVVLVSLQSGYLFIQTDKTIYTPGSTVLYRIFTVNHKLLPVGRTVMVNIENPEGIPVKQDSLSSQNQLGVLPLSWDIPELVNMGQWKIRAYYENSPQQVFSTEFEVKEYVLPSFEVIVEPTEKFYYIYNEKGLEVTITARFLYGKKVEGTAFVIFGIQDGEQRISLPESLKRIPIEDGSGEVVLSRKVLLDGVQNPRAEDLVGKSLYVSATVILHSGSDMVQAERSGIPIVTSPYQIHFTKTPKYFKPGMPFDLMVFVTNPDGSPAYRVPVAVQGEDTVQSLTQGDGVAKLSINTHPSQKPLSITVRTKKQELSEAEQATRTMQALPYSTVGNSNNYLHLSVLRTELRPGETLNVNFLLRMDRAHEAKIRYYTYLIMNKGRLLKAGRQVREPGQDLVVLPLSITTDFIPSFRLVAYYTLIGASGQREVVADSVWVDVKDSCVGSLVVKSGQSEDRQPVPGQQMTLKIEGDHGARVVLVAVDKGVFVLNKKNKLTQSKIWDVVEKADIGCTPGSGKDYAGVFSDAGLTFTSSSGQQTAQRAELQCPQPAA
T3 sequence (P01024 672-1663 limits assumed, chain 2 of 2): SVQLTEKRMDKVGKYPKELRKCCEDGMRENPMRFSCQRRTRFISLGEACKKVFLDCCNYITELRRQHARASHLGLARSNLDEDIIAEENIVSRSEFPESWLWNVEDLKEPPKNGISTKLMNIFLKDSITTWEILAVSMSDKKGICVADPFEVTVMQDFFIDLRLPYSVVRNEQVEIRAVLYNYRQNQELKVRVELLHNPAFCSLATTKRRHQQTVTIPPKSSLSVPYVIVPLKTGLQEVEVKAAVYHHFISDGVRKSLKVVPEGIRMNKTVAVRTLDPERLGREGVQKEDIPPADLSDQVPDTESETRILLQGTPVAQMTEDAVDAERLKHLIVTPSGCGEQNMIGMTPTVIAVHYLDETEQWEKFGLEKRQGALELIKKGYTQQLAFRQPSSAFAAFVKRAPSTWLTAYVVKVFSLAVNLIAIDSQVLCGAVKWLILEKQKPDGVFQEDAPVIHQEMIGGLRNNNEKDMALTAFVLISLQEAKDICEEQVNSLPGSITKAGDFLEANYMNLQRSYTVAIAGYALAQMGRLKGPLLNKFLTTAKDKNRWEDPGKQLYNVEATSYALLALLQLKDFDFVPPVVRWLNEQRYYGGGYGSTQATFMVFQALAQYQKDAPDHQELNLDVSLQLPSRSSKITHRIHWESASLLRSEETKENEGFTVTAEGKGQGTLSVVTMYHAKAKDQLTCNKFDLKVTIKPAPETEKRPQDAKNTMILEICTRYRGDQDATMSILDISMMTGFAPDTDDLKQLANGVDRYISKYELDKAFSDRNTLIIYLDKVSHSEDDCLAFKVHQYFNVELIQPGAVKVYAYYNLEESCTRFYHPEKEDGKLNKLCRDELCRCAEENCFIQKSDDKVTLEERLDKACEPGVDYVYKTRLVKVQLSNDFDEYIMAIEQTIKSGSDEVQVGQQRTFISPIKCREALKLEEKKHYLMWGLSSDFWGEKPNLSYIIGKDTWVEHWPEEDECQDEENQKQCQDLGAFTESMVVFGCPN

In the case of “methylamine-treated C3 (C3met) (from UniProt P01024 23-667; P01024 672-1663)”, the values for the mfi in [1] and in assay [2] were 14.9 and 2.7, respectively.

Regarding “complement C3 in normal human serum (from UniProt P01024 23-667; P01024 672-1663)”, the mfi in [3] came out at 3.9; in [4] it was 1.4.

B1: recombinant UspA1^50-491 (other)
chain: KVGKATNKISGGDNNTANGTYLTIGGGDYNKTKGRYSTIGGGLFNEATNEYSTIGSGGYNKAKGRYSTIGGGGYNEATNQYSTIGGGDNNTAKGRYSTIGGGGYNEATIENSTVGGGGYNQAKGRNSTVAGGYNNEATGTDSTIAGGRKNQATGKGSFAAGIDNKANADNAVALGNKNTIEGENSVAIGSNNTVKKGQQNVFILGSNTDTTNAQNGSVLLGHNTAGKAATIVNSAEVGGLSLTGFAGASKTGNGTVSVGKKGKERQIVHVGAGEISDTSTDAVNGSQLHVLATVVAQNKADIKDLDDEVGLLGEEINSLEGEIFNNQDAIAKNQADIKTLESNVEEGLLDLSGRLLDQKADIDNNINNIYELAQQQDQHSSDIKTLKNNVEEGLLDLSGRLIDQKADLTKDIKALESNVEEGLLDLSGRLIDQKADIAKNQA
notes: also called N-terminal half of UspA1
Regarding B1, the binding result in assay [5] is listed as “binds”.

B2: recombinant UspA2^30-177 (other)
chain: QAKNDITLEDLPYLIKKIDQNELEADIGDITALEKYLALSQYGNILALEELNKALEELDEDVGWNQNDIANLEDDVETLTKNQNAFAEQGEAIKEDLQGLADFVEGQEGKILQNETSIKKNTQRNLVNGFEIEKNKDAIAKNNESIED
For the molecule B2, the figures for the binding result in assay [6] and in [7] were “no binding” and “binds”, respectively.

B3: UspA1 454-770 (other)
recombinant truncated protein: KADLTKDIKALESNVEEGLLDLSGRLIDQKADIAKNQADIAQNQTDIQDLAAYNELQDAYAKQQTEAIDALNKASSANTDRIATAELGIAENKKDAQIAKAQANENKDGIAKNQADIQLHDKKITNLGILHSMVARAVGNNTQGVATNKADIAKNQADIANNIKNIYELAQQQDQHSSDIKTLAKVSAANTDRIAKNKAEADASFETLTKNQNTLIEQGEALVEQNKAINQELEGFAAHADVQDKQILQNQADITTNKTAIEQNINRTVANGFEIEKNKAGIATNKQELILQNDRLNRINETNNHQDQKIDQLGYAL
For the molecule B3, the binding result in assay [8] was “no binding”.

B4: recombinant UspA1^50-321 (other)
chain: KVGKATNKISGGDNNTANGTYLTIGGGDYNKTKGRYSTIGGGLFNEATNEYSTIGSGGYNKAKGRYSTIGGGGYNEATNQYSTIGGGDNNTAKGRYSTIGGGGYNEATIENSTVGGGGYNQAKGRNSTVAGGYNNEATGTDSTIAGGRKNQATGKGSFAAGIDNKANADNAVALGNKNTIEGENSVAIGSNNTVKKGQQNVFILGSNTDTTNAQNGSVLLGHNTAGKAATIVNSAEVGGLSLTGFAGASKTGNGTVSVGKKGKERQIVHVGA
On to B4, for which the binding result in [8] and in assay [9] was “no binding” in each case.

B5: recombinant UspA1^557-704 (other)
chain: NENKDGIAKNQADIQLHDKKITNLGILHSMVARAVGNNTQGVATNKADIAKNQADIANNIKNIYELAQQQDQHSSDIKTLAKVSAANTDRIAKNKAEADASFETLTKNQNTLIEQGEALVEQNKAINQELEGFAAHADVQDKQILQNQ
As to B5, the binding result in assay [8] and in assay [9] was “no binding” in each case.

B6: recombinant UspA1^50-197 (other)
chain: KVGKATNKISGGDNNTANGTYLTIGGGDYNKTKGRYSTIGGGLFNEATNEYSTIGSGGYNKAKGRYSTIGGGGYNEATNQYSTIGGGDNNTAKGRYSTIGGGGYNEATIENSTVGGGGYNQAKGRNSTVAGGYNNEATGTDSTIAGGR
B6: the binding result in assay [8] and in assay [10] was “no binding” in each case.

B7: recombinant UspA1^433-580 (other)
chain: KTLKNNVEEGLLDLSGRLIDQKADLTKDIKALESNVEEGLLDLSGRLIDQKADIAKNQADIAQNQTDIQDLAAYNELQDAYAKQQTEAIDALNKASSANTDRIATAELGIAENKKDAQIAKAQANENKDGIAKNQADIQLHDKKITNL
B7: the binding result in [8] and in [9] was “no binding” each time.

B8: recombinant UspA2^101-318 (other)
chain: LEDDVETLTKNQNAFAEQGEAIKEDLQGLADFVEGQEGKILQNETSIKKNTQRNLVNGFEIEKNKDAIAKNNESIEDLYDFGHEVAESIGEIHAHNEAQNETLKGLITNSIENTNNITKNKADIQALENNVVEELFNLSGRLIDQKADIDNNINNIYELAQQQDQHSSDIKTLKKNVEEGLLELSDHIIDQKTDIAQNQANIQDLATYNELQDQYAQK
For B8, the binding result in assay [11] is given as “no binding”.

B9: recombinant UspA2^165-318 (other)
chain: KDAIAKNNESIEDLYDFGHEVAESIGEIHAHNEAQNETLKGLITNSIENTNNITKNKADIQALENNVVEELFNLSGRLIDQKADIDNNINNIYELAQQQDQHSSDIKTLKKNVEEGLLELSDHIIDQKTDIAQNQANIQDLATYNELQDQYAQK
notes: also called UspA2^165-316; UspA2^155-318 (misprints)
B9: in [11], the binding result is “no binding”.

B10: recombinant UspA1^680-770 (other)
chain: KAINQELEGFAAHADVQDKQILQNQADITTNKTAIEQNINRTVANGFEIEKNKAGIATNKQELILQNDRLNRINETNNHQDQKIDQLGYAL
With B10, the binding result in assay [8] and in assay [9] was “no binding” throughout.

B11: recombinant UspA2^302-458 (other)
chain: IQDLATYNELQDQYAQKQTEAIDALNKASSENTQNIEDLAAYNELQDAYAKQQTEAIDALNKASSENTQNIEDLAAYNELQDAYAKQQAEAIDALNKASSENTQNIAKNQADIANNITNLYELAQQQDKHRSDIKTLAKTSAANTDRIAKNKADDDA
Consider B11, for which, in assay [11], the binding result is “no binding”.

B12: recombinant UspA2^30-539 (M. catarrhalis Bc5) (other)
chain: QAKNDITLEDLPYLIKKIDQNELEADIGDITALEKYLALSQYGNILALEELNKALEELDEDVGWNQNDIANLEDDVETLTKNQNAFAEQGEAIKEDLQGLADFVEGQEGKILQNETSIKKNTQRNLVNGFEIEKNKDAIAKNNESIEDLYDFGHEVAESIGEIHAHNEAQNETLKGLITNSIENTNNITKNKADIQALENNVVEELFNLSGRLIDQKADIDNNINNIYELAQQQDQHSSDIKTLKKNVEEGLLELSDHIIDQKTDIAQNQANIQDLATYNELQDQYAQKQTEAIDALNKASSENTQNIEDLAAYNELQDAYAKQQTEAIDALNKASSENTQNIEDLAAYNELQDAYAKQQAEAIDALNKASSENTQNIAKNQADIANNITNLYELAQQQDKHRSDIKTLAKTSAANTDRIAKNKADDDASFETLTKNQNTLIEKDKEHDKLITANKTAIDANKASADTKFAATADAFTKNGNAITKNAKSITDLGTKVDGFDSRVTALDT
notes: also called UspA^230-539 [sic]
As to B12, the affinity in [12], expressed as Kd, was 3 µM. Also, in assay [13], the “EC50 (read off the curve)” value was ~3 µg/mL.

B13: UspA2 446-539 (other)
recombinant truncated protein: TDRIAKNKADDDASFETLTKNQNTLIEKDKEHDKLITANKTAIDANKASADTKFAATADAFTKNGNAITKNAKSITDLGTKVDGFDSRVTALDT
Take B13: the binding result in [11], in assay [6] and in assay [14] was “no binding” in each case.

Usually Kd stands for the equilibrium constant for the complex coming apart. High values mean weaker binding, low ones tighter binding. The term EC50 (read off the curve) denotes the concentration needed to bring the measured effect to its halfway point.
